The record followed here is the supplement of paper PMC10567573.

B1: SPATS1 (parent)
chain: GRKKYDIDPRNGIPKLTPGDNPYM
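Note: lentivirally expressed fusions sorted by FACS into six bins by GFP to DsRed ratio, PSI derived from sequencing read proportions per bin multiplied by bin number.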

The data set covers variants of B1. Kind of data set: protein stability index of a GFP-peptide fusion (GPS, HEK-293T) (PSI 1-6); higher = more stable. The settings on record: c terminus: a fixed tail appended.
For the variant GRKKYDIDPRNYIPKLTPGDNPYM [G12Y], the protein stability index came to 2.8.
Under GRKKYDIDPRNKIPKLTPGDNPYM [G12K] stands 3.58; under GRKKYDIDPRNQIPKLTPGDNPYM [G12Q], 3.72.
Take GRKKYDIDPRNWIPKLTPGDNPYM [G12W]: the protein stability index amounted to 2.83.
To GRKKYDIDPRNRIPKLTPGDNPYM [G12R] belongs 3.42; to GRKKYDIDPRNCIPKLTPGDNPYM [G12C], 2.48; to GRKKYDIDPRNLIPKLTPGDNPYM [G12L], 3.09.
Regarding GRKKYDIDPRNNIPKLTPGDNPYM [G12N], the protein stability index came out at 3.21.
To GRKKYDIDPRNSIPKLTPGDNPYM [G12S] belongs 3.57; to GRKKYDIDPRNIIPKLTPGDNPYM [G12I], 2.77.
As for GRKKYDIDPRNEIPKLTPGDNPYM [G12E], the protein stability index was 3.97.
To GRKKYDIDPRNDIPKLTPGDNPYM [G12D] belongs 3.3.
Take GRKKYDIDPRNMIPKLTPGDNPYM [G12M]: the protein stability index is 3.08.
As for GRKKYDIDPRNVIPKLTPGDNPYM [G12V], the protein stability index came out at 3.46.
Under GRKKYDIDPRNHIPKLTPGDNPYM [G12H] stands 3.32.
To GRKKYDIDPRNFIPKLTPGDNPYM [G12F] belongs 3.34; to GRKKYDIDPRNPIPKLTPGDNPYM [G12P], 3.9.
To GRKKYDIDPRNAIPKLTPGDNPYM [G12A] belongs 3.66; to GRKKYDIDPRNTIPKLTPGDNPYM [G12T], 3.22; to GRKKYDIDPRNGIPKLTPGCNPYM [D20C], 3.47.
As to GRKKYDIDPRNGIPKLTPGINPYM [D20I], the protein stability index amounted to 2.18.
To GRKKYDIDPRNGIPKLTPGPNPYM [D20P] belongs 3.2; to GRKKYDIDPRNGIPKLTPGLNPYM [D20L], 2.71.
To GRKKYDIDPRNGIPKLTPGGNPYM [D20G] belongs 3.3; to GRKKYDIDPRNGIPKLTPGMNPYM [D20M], 2.46; to GRKKYDIDPRNGIPKLTPGVNPYM [D20V], 3.37.
Under GRKKYDIDPRNGIPKLTPGKNPYM [D20K] stands 3.74; under GRKKYDIDPRNGIPKLTPGHNPYM [D20H], 3.06.
Take GRKKYDIDPRNGIPKLTPGFNPYM [D20F]: the protein stability index was determined as 2.33.
Under GRKKYDIDPRNGIPKLTPGWNPYM [D20W] stands 2.41; under GRKKYDIDPRNGIPKLTPGRNPYM [D20R], 3.74.
To GRKKYDIDPRNGIPKLTPGENPYM [D20E] belongs 3.65.
Under GRKKYDIDPRNGIPKLTPGNNPYM [D20N] stands 3.12.
Take GRKKYDIDPRNGIPKLTPGANPYM [D20A]: the protein stability index was found to be 3.58.
To GRKKYDIDPRNGIPKLTPGTNPYM [D20T] belongs 3.12; to GRKKYDIDPRNGIPKLTPGSNPYM [D20S], 3.79.
Under GRKKYDIDPRNGIPKLTPGQNPYM [D20Q] stands 3.36; under GRKKYDIDPRNGIKKLTPGDNPYM [P14K], 3.44; under GRKKYDIDPRNGIGKLTPGDNPYM [P14G], 3.38.
Under GRKKYDIDPRNGIAKLTPGDNPYM [P14A] stands 3.52; under GRKKYDIDPRNGIYKLTPGDNPYM [P14Y], 3.03; under GRKKYDIDPRNGIMKLTPGDNPYM [P14M], 3.05.
Consider GRKKYDIDPRNGILKLTPGDNPYM [P14L], for which the protein stability index was determined as 2.94.
Turning to GRKKYDIDPRNGICKLTPGDNPYM [P14C], the protein stability index came to 2.95.
To GRKKYDIDPRNGIVKLTPGDNPYM [P14V] belongs 3.36; to GRKKYDIDPRNGIRKLTPGDNPYM [P14R], 2.99; to GRKKYDIDPRNGISKLTPGDNPYM [P14S], 3.3.
Under GRKKYDIDPRNGIQKLTPGDNPYM [P14Q] stands 3.42; under GRKKYDIDPRNGIFKLTPGDNPYM [P14F], 2.4; under GRKKYDIDPRNGIIKLTPGDNPYM [P14I], 2.96.
Under GRKKYDIDPRNGITKLTPGDNPYM [P14T] stands 3.27; under GRKKYDIDPRNGIHKLTPGDNPYM [P14H], 3.51.
In the case of GRKKYDIDPRNGIWKLTPGDNPYM [P14W], the protein stability index is 2.9.
To GRKKYDIDPRNGINKLTPGDNPYM [P14N] belongs 3.55.
To GRKKYDIDPRNGIEKLTPGDNPYM [P14E] belongs 4.16; to GRKKYDIDPRNGIDKLTPGDNPYM [P14D], 3.66; to GRKKYDIDPRHGIPKLTPGDNPYM [N11H], 3.54.
To GRKKYDIDPRIGIPKLTPGDNPYM [N11I] belongs 3.22; to GRKKYDIDPRGGIPKLTPGDNPYM [N11G], 3.53; to GRKKYDIDPRFGIPKLTPGDNPYM [N11F], 3.34.
Regarding GRKKYDIDPRCGIPKLTPGDNPYM [N11C], the protein stability index came out at 2.77.
Under GRKKYDIDPRMGIPKLTPGDNPYM [N11M] stands 3.17; under GRKKYDIDPRPGIPKLTPGDNPYM [N11P], 3.8.
To GRKKYDIDPRWGIPKLTPGDNPYM [N11W] belongs 2.48; to GRKKYDIDPRQGIPKLTPGDNPYM [N11Q], 3.41; to GRKKYDIDPREGIPKLTPGDNPYM [N11E], 3.82.
To GRKKYDIDPRRGIPKLTPGDNPYM [N11R] belongs 3.28; to GRKKYDIDPRSGIPKLTPGDNPYM [N11S], 3.6; to GRKKYDIDPRYGIPKLTPGDNPYM [N11Y], 4.13.
For the variant GRKKYDIDPRVGIPKLTPGDNPYM [N11V], the protein stability index was determined as 3.28.
Turning to GRKKYDIDPRLGIPKLTPGDNPYM [N11L], the protein stability index came to 3.06.
To GRKKYDIDPRKGIPKLTPGDNPYM [N11K] belongs 3.59; to GRKKYDIDPRDGIPKLTPGDNPYM [N11D], 3.87; to GRKKYDIDPRTGIPKLTPGDNPYM [N11T], 3.46.
To GRKKYDIDPRNGLPKLTPGDNPYM [I13L] belongs 3.64; to GRKKYDIDPRNGRPKLTPGDNPYM [I13R], 3.58.
To GRKKYDIDPRNGMPKLTPGDNPYM [I13M] belongs 3.36; to GRKKYDIDPRNGQPKLTPGDNPYM [I13Q], 3.68; to GRKKYDIDPRNGSPKLTPGDNPYM [I13S], 3.88.
Regarding GRKKYDIDPRNGVPKLTPGDNPYM [I13V], the protein stability index was 3.82.
To GRKKYDIDPRNGWPKLTPGDNPYM [I13W] belongs 3.44.
To GRKKYDIDPRNGKPKLTPGDNPYM [I13K] belongs 3.9; to GRKKYDIDPRNGHPKLTPGDNPYM [I13H], 4.04; to GRKKYDIDPRNGPPKLTPGDNPYM [I13P], 3.86.
Under GRKKYDIDPRNGGPKLTPGDNPYM [I13G] stands 3.78.
For the variant GRKKYDIDPRNGAPKLTPGDNPYM [I13A], the protein stability index was 4.14.
Under GRKKYDIDPRNGCPKLTPGDNPYM [I13C] stands 3.82; under GRKKYDIDPRNGFPKLTPGDNPYM [I13F], 3.99; under GRKKYDIDPRNGYPKLTPGDNPYM [I13Y], 2.81.
Under GRKKYDIDPRNGNPKLTPGDNPYM [I13N] stands 4.1; under GRKKYDIDPRNGTPKLTPGDNPYM [I13T], 3.72; under GRKKYDIDPRNGDPKLTPGDNPYM [I13D], 4.92.
Regarding GRKKYDIDPRNGEPKLTPGDNPYM [I13E], the protein stability index is 4.45.
To GRKKYDIDPRNGIPKLTVGDNPYM [P18V] belongs 3.34.
